Data reported in the supplement of paper PMC12042874.
± gives the uncertainty stated by the source.

Assay: amyloid nucleation score (Sup35N fusion, yeast selection) (log enrichment); library NNK3; higher = more nucleation; inactive = no reads after selection
Summary of the method: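 DiMSum was used to calculate nucleation scores as log enrichment of output over input reads, centred on the mode score of non-aggregating sequences. Sequences with fewer than 100 input reads were not scored. Input and output came from Illumina sequencing of plasmid inserts in psi-negative yeast expressing peptides of 20 random codons fused to Sup35N, induced 24 hours with 100 μM copper sulfate and then grown 7 days at 30°C on medium lacking adenine and uracil.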

| Substance | amyloid nucleation score |
| --- | --- |
| FNVGFLKWCFSMVGQGVDLH | inactive |
| FNVLMGTSYFAISEIASVPA | inactive |
| FPARLYGYMFLKNSTLRFSR | inactive |
| FPENIVYGHEGLD | inactive |
| FPMDL | inactive |
| FPSKCCANKSSYLGWTSLCW | inactive |
| FPVSMENFKYA | inactive |
| FQCFFRVLVV | inactive |
| FQCRYLKHDDKDNYFKGNGK | inactive |
| FQFWGAGGDI | inactive |
| FQRFYYLCWPSIWNMFQGGG | inactive |
| FQRVPNWVSIILTGYRGNTC | inactive |
| FQVLN | inactive |
| FQWITSIRSSKKMGCY | inactive |
| FRACIVLYNTVHVVHFNISR | 0.565 ± 0.46 |
| FRADSSVGVIKVCLGRLCRW | inactive |
| FRAYWLYISALAHQIITMLK | inactive |
| FRCTRGSIVWSFYFVRNLMI | inactive |
| FRKTGFSFVFLIVDEYFICN | inactive |
| FRNLSDVLVRLFPVQLLSYP | inactive |
| FRNRLGSTDNQWV | inactive |
| FRRLHQGLWKMYS | inactive |

| Substance | amyloid nucleation score |
| --- | --- |
| FRSTGRKQELLLHSRKKQLP | inactive |
| FSDCFSRLVYPRGNNLV | inactive |
| FSFITLMVTLSSVKIGEIWW | inactive |
| FSGCWRWNNQ | inactive |
| FSGRMVSRIDIIYRRKSVMS | 1.28 ± 0.076 |
| FSGRYGTRLPLYSGRFKWFI | inactive |
| FSGSTSLCLMMRYTSTVR | 0.359 ± 0.25 |
| FSILCKLVLRQLKNGSFYGF | -0.329 ± 0.77 |
| FSIPPFTRTCLKNGLHYSVR | -0.759 ± 0.88 |
| FSIQSRCAVGWLSIGSVTAR | inactive |
| FSRGVCTSYLSVRYGLCSTE | inactive |
| FSRTRVTLV | inactive |
| FSSKDRLGSHSRYYFYCATL | inactive |
| FSSRDWNYSSRMVKIRNGRF | inactive |
| FSSRHVTPCIRINFNIVSCS | inactive |
| FSTWNKRRMLYRHSGLFRQS | inactive |
| FSVFPLFVTGFQDILWVDLL | inactive |
| FSYEMFNAMGYFPIASLCSF | inactive |
| FTESVASYELAQVVSRSMLC | inactive |
| FTFCTCAKSAWTGLGLQGKI | inactive |
| FTFWWDRLQNWKHIGFFGKV | 1.06 ± 0.12 |
| FTIGNTA | inactive |

| Substance | amyloid nucleation score |
| --- | --- |
| FTKLYELSDMHISYTRS | inactive |
| FTKSREWGFMDKPAINWVSC | inactive |
| FTLARAMPLGYSQGIMKSRG | inactive |
| FTMMCVYMSWQSGSQRTVTI | inactive |
| FTMNQGSDVEVFLSSMF | inactive |
| FTNFCS | inactive |
| FTSYRSEPTIYALLCLGLSL | 2.08 ± 0.093 |
| FTVYCF | inactive |
| FTYVNSHECWLVKDMVAYFL | 3 ± 0.073 |
| FVAADSPGVSSFKAN | inactive |
| FVASDLLFGVRDQSVFSLSQ | inactive |
| FVCFIKLRLVDSRIVTNFQR | inactive |
| FVCKMVMIRRGDTWKVSKVV | inactive |
| FVDLSSIDYVF | inactive |
| FVEISRSGLLWFDF | inactive |
| FVERMVLVLV | inactive |
| FVIFW | inactive |
| FVISYELWAVSERNWSFEMR | inactive |
| FVLFGGWLPRVQRLSLGTGR | inactive |
| FVLQFSSGCYFGPD | inactive |
